Among the data in a protein production outcome set (Wang et al. 2014) are protein production values, retold here.

This data set in a line: label from the status in PepcDB records.
On to “MSALLGILGVVLDARFGEPQGWHPLVAFGRLADRLERRFNRSRLAGEADPGVGWRSHGVTAWVLAVLPLTLLAWALAELPYLGWLVQALALYAALGLRSLGEHAEPVALALRAGDLDEARRRVGYLVSRDTRELDQAGVARAATESVLENGSDAVYAALFWFAVAGAPGVVLYRLSNTLDAMWGYRNARFERFGWAAAKIDDILNYLPARLVALTYALLGDTRQALRCWREQAPQWDSPNAGPVMAAGAGALGVFLGGAAIYHGELHQRPLLGSGPQPQGRDIYRALALVRQGVLLWLLVLAGLWAMGWLHA”, for which the protein production result is recorded as “failed”.

On to “PGSFSQEAAEIFGSDLVPVRSISEIFHKISVTGDYGIVPIENSIEGPVNETLDGLFRHEDIYIVDHVEIPIEIFLASNCDTENIRRIYSHPHAIAEAGDYLERTENIEVIRTSSTSEAAKLASMDEAGAALCSMKAAQHYGLANTVKIESKSRNITRFILIGRERN”, for which the protein production result is recorded as “not failed”.

As for “MQTWQQLYSPLGSLGLSALAAVIPIVFFFLALAVFRLKGHVAGSITLALSILVAIFAFQMPADMALAAAGYGFAYGLWPIAWIIVAAVFLYKLTVKSGQFEIIRSSVLSITDDQRLQVLLIGFCFGAFLEGAAGFGAPVAITAALLVGLGFNPLYAAGLCLIANTAPVAFGALGIPIIVAGQVTGIDAFKIGAMTGRQLPLLSLFVPFWLVFMMDGMRGVKETWPAALVAGLSFAVTQYFTSNFIGPELPDITSALASLISLTLFLKIWQPKRTAGAQIAGATSSAAITASAGGFGQPRQTQASPYSLGQIFKAWSPFLILTVLVTIWTLKPFKAMFAAGGSMYGWVFNFAIPHLDQLVIKMAPIVTTPTAIPAVFKLDPISATGTAIFFSALISMLLLKIDFKTGLTTLKETFYELRWPILSIGMVLAFAFVTNYSGMSSTMALVLAATGAAFPFFSPFLGWLGVFLTGSDTSSNALFSSLQATTAHQIGVNDTLLVAANTSGGVTGKMISPQSIAVACAATGLVGKESDLFRFTLKHSLFFATIVGLITLAQAYWFTGMLVH”, the protein production entry is given as “failed”.

In the case of “MVFNLVVNIIGIVVFIAIAYLFSKQKHAINWRSVGVMLVLEVLLAWFLTGSQVGVDAVKAAADGFTWLVNVSYDGIAFALASWVNVKSMDFVTSSLLPILLIVPLFDILTYIGVLPWIIKWVGRGLAYITGQPKFESFFVVEMMFLGNTEALAVSQLQLKQMKAQRNLTIAMMSMSCVTASILGAYIKMMPGQFILTAVPMNVLNAAIIAAILNPVEVKPEEDTIAKISGSAAVEETTATTETSGSEELANEQVKEAKPAREPFFSFLGDSILGAGRLILIIAANVIAFVALAKLIDKLLGLINSNLSLENIFGVVMFPFAWLLGFNPSDAFQMASYMGTKLVTNEFVVMGEVSSKVNDFAPHFRAVLTVFLTSFANFSTIGMIIGAFKGIVDREKNDLISRNVGYMLLSGILVSLLSAGVVGLFVW”, the protein production result is “failed”.

As for “MQWPPPWRRSPLVSATPPPGPTRGLLCPRRVSEAGDSSTEGARTGHSHYVTPAESAMEGRSQPLPSLRPASPTNAPAHGRGSDCTAKEPPLANVCRQNYGAAQDPVELAGRRSASHVTGSSLGKAEVACGRRWRWAELLADTSWSPAGRATEMKVKMLSRNPDNYVRETKLDLQRVPRNYDPALHPFEVPREYVRALNATKLERVFAKPFLASLDGHRDGVNCLAKHPEKLATVLSGACDGEVRIWNLTQRNCIRTIQAHEGFVRGICTRFCGTSFFTVGDDKTVKQWKMDGPGYGDEEEPLHTILGKTVYTGIDHHWKEAVFATCGQQVDIWDEQRTNPICSMTWGFDSISSVKFNPIETFLLGSCASDRNIVLYDMRQATPLKKVILDMRTNTICWNPMEAFIFTAANEDYNLYTFDMRALDTPVMVHMDHVSAVLDVDYSPTGKEFVSASFDKSIRIFPVDKSRSREVYHTKRMQHVICVKWTSDSKYIMCGSDEMNIRLWKANASEKLGVLTSREKAAKDYNQKLKEKFQHYPHIKRIARHRHLPKSIYSQIQEQRIMKEARRRKEVNRIKHSKPGSVPLVSEKKKHVVAVVK”, the protein production result is “failed”.

In the case of “MTNSKQKLVLASGSPRRLELLHQIGIEPARLMPMDIDETPVKLEHPRTLCRRLSQQKAEAAQAALKSEQAWKDAYVLGSDTVVAVGRRIVGKAEYTEEASAALHLLSGRSHWVYTGICLVTPDGKIRQKVAETKVRFKRLSTREIDAYIASGQWRGKAGAYGIQGIAGAFVQKLTGSYTNVVGLPLYETMSLLSGEGFEVTSGWLEG”, the protein production result is “failed”.

For “MKNIVPPADIILNMLNEKPGADLDLLDFYKGYIRRASIEPSYSEEGFDKGKHINEDLRQEIEIAFLKGLVSLRHNICKKGSTVLIIVPSKSWFDLEHHHHHH”, the protein production result is recorded as “failed”.

Regarding “MKVLFLTANEFEDVELIYPYHRLKEEGHEVYIASFERGTITGKHGYSVKVDLTFDKVNPEEFDALVLPGGRAPERVRLNEKAVSIARKMFSEGKPVASICHGPQILISAGVLRGRKGTSYPGIKDDMINAGVEWVDAEVVVDGNWVSSRVPADLYAWMREFVKLLK”, the protein production entry is “not failed”.

In the case of “LDAVVQEKFSGRRWTIPAKVYARPLELFNGLKLSREDFLRELDALGYRREPSVSGPGTVSVAASAVELNTRGFQFYEGAEPAQRVRVRFNGNYVSGLSQANGKELAVARLEPLLIGGLYPAHHEDRILVKLDQVPTYLIDTLVAVEDRDFWNHHGVSLKSVARAVWVNTTAGQLRQGGSTLTQQLVKNFFLSNERSLSRKINEAMMAVLLELHYDKRDILESYLNEVFLGQDGQRAIHGFGLASQYFFSQPLAELKLDQVALLVGMVKGPSYFNPRRYPDRALARRNLVLDVLAEQGVATQQEVDAAKLRPLGVTRQGSMADSSYPAFLDLVKRQLRQDYRDEDLTEEGLRIFTSFDPILQEKAETSVNETLKRLSGRKGVDQVEAAMVVTNPETGEIQALIGSRDPRFAGFNRALDAVRPIGSLIKPAVYLTALERPSKYTLTTWVQDEPFAVKGQDGQVWRPQNYDRRSHGTIFLYQGLANSYNLSTAKLGLDVGVPNVLQTVARLGINRDWPAYPSMLLGAGSLSPMEVATMYQTIASGGFNTPLRGIRSVLTADGQPLKRYPFQVEQRFDSGAVYLVQNAMQRVMREGTGRSVYSQLPSSLTLAGKTGTSNDSRDSWFSGFGGDLQAVVWLGRDDNGKTPLTGATGALQVWASFMRKAHPQSLEMPMPENVVMAWVDAQTGQGSAADCPNAVQMPYIRGSEPAQGPGCGSQNPAGEVMDWV”, the protein production result is listed as “failed”.

With “MQFLNQSLGFFNKGCFEPIDRNFITESYQALKPIEEIQNKYNKHDNDSFLNELRDSMVALYLDYELINIQKHGLDAKRSSSDEFLEIKQVSFQSQLIKEFEFKMKPIDSKEQELINLFNLKFGHFSWENYLA”, the protein production result is listed as “failed”.

With “MVQVEKGHVAVVFLNDPERRNPLSPEMALSLLQALDDLEADPGVRAVVLTGRGKAFSAGADLAFLERVTELGAEENYRHSLSLMRLFHRVYTYPKPTVAAVNGPAVAGGAGLALACDLVVMDEEARLGYTEVKIGFVAALVSVILVRAVGEKAAKDLLLTGRLVEAREAKALGLVNRIAPPGKALEEAKALAEEVAKNAPTSLRLTKELLLALPGMGLEDGFRLAALANAWVRETGDLKEGIRAFFEKRPPRF”, the protein production result is “not failed”.

For the sequence “MKYRFIDHTADIAFEVYGSNLRELFENAALAFYDAFVDTSGIGIEREVGVECEGEDVEITLYRWLNELLYLFDTEFFAAKDVEVEVEEGDGVKASGKLRGGRFSAEMVKVEPKAITLHKFRVEKTDKGYVAFVVVDI”, the protein production entry is “failed”.

Turning to “MALKEAHQPQTQPLWHQLGLVLAKHFEPQDAKAVLQLLRQEHEERLQKISLEHLEQLAQYLLAEEPHVEPAGERELEAKARP”, the protein production entry was “failed”.

In the case of “MTLEKKEYGAPGFWPGSMIGRVHAFETPAPLTRAQLDRLRDEFFETRTEGHLEIWTAIRAASHAQEAGDDELAYAIITAVGILPAEVGPAGEGLGERIPFAEQPLDRLLGMICGCCFPAFTRYRTLERVYDQRGFLYETPKECIATPSNVLPDESTEASAR”, the protein production result was “not failed”.

With “MANRQRGVALIIVLMLLAIMATIAATMSERLFLQFQRGSNQIHYQQAYWYSVGVEALAEVGIEQSYKDSDTINLSQPWAIKEQVYPLDYGQAAGRIWDKQACFNLNVLSRVQPTGQQTTRPYLVQVLQRLLEESDVEPYQAEVIADSTWEYIDSDSTVRSTTGVEDSTYESMKPSYLAANGWMADKTELRAVYQVSGEIYQKIEPLVCAIPSDDWRLNVNTIEVEQAPILVAMFSPNLSSSDAVQLIEKRPFDGWDSVDEFLAESELTGLSDDVKKNAKGYLGVDSSFFELDAQVLVDDSRVRIRSLLQSTNRETVTVVRRRFGGISERVSDRSAE”, the protein production result is “failed”.

Consider “MSKRMRPSWYRDSPPKQLPYAFVPEEDDDVVILPQVDNSALLGRLQLSLVGRMFHQGGRSTEALLSFLPNIWDVEGRVRGVSLGDSRFQFFFESETDLQKVLNKRPCHFSKWSFALERWKSHIGISFPDTMTFWIKTEGIPTEFWEEEVLRNFGASIGAVRRVDSSKGRLQISVKADVPFRFNKNAQLPNGEVVKVKLFYEKLF”, for which the protein production result is given as “failed”.

For “MDLYLDPSILIILIVFGFVAAFIDSVVGGGGLIALPALLFTGLNPASAVATNKLASTMGSATSNIVFYRSGNLNLKSAFKLVPLTFIGSIIGAWTVHLMNPEVLKPLMLIMLGAVAIYTIFKKDWGSISTHKKLSGRHVIIFTFFVFAIGFYDGFLGPGTGSFLMFSLLFIGYDFLKAAGNAKLLNLGSNVGALLMFMYVGQVNYAYGFIMGIAQIAGGIVGSKFAIKKGSGYVRALFITVTCLLLAKNLYDYIQ”, the protein production result is “failed”.

“MHSNINTLIANHRAGHALDQAFYTDAEVFQTDLQEIFYKEWLFAIPACELDKPGSYVTHQVGNYNVIIVRGADNVIRAFHNACRHRGSVICKAKKGNNPKLVCPYHQWTYELDGRLLWARDMGPDFEPSRHGLKTVHCRELAGLIYICLADEAPDFERFAEVARPYLEVHDLSNAKVAHESSIVERGNWKLVWENNRECYHCGGNHPALCRTFPDDPSVTGIEGGETPSNLQAHFDRCEQAGMPSGFHLSGDGQFRVARMPLKEGAESYTMDGKTAVRRWLGRAAFADAGSLLKFHYPTTWNHFLSDHSIVFRVTPISPTETEVTTKWLVHKDAVEGVDYDLQRLTEVWIATNDEDREVVEFNQMGINSPAYEPGPYSPTQESGVLQFVEWYLSTLKRNSGPHAVAAE”: the protein production entry is “not failed”.

With “MTRHNEIIKCAEKYQLHIQPQTISLNESGLDFQVAFGKDKHGVEWVLRLPRRPDVYKRTKPEKQTVDFLQKNVSFEIPKWKVHAKDLIAYPKLTGKPAATIDPEIQNYVWEIEHKPLPENFINTLAETLVDLHNIPEENINVQHINIKTIQEIKNDFQRRMNKVKETYGVSDELWNRWKQWLENDELWPRHATMIHGDLHPGHIMVDNQANVTGLIDWTEATHSDPSMDFIGHHRVFDDEGLEQLITAYGKAGGEIWPRMKEHIIELNAVFPMFIAEFAMESGESAYETMALKELGMKE”, the protein production result is “failed”.

Consider “MMEFNVAENGGGSYRPLAILRWVMVVIFVSFGMQKFTLQSAQGIAQFITNSPFISWLSIFGLRGEAYVLGVAEFAIAALLAAGSFSPVLSAVGSFMGVVTFAITWSFFFTTPGVVTWSLSSDPMAWNLTGEFLFKDIVLLCVCAVLFLASLPRSAIRLRTG”, for which the protein production entry was “failed”.

Take “MPHLTKAVHDYRLAAMHRLMDRLRVDALVFGSPDFFQYATNFQLDVWPWERPVFVVVPRNGETFAVMNELSTNHMRFATEKGTVWLSDVTYYAEHPRVANRLALPSQLPEVVAALLAAKGLGMSRIAVDVQHPILTGAQRYLPEMTLRPAMAEMRSLRWVKHAEELQIMRDLAALTDWVQDRYRENIRPGRLVQELDHAMAALMVEEAARRFAGEDFEIMKCWTLTGAASASPHGDGAACGSRIAKGDTIVNLVLPRLNGLYVENERTWFCGQPSDEQARFYSVAARATDAAVAAAVVGRRVCDMDAAAQAVIESAGCGDYVFHRTGHAVGLMLHEYPEDMAFNTRPLLAGEVYSSEPGLYVYGLGGFRLDDTVVVGEVPEVIVKTPKTLSYATVSL”: the protein production entry is on record as “failed”.
